Laboratory results from patent US20070258972A1, “Combination of a Histone Deacetylase Inhibitor with a Death Receptor Ligand” (priority 2003, published 2007).

Test system: Primary AML cells
Experiment: Apoptosis of primary AML cells by annexin V staining and flow cytometry
Assay type: cell-based, human
Conditions: for % of Apoptosis: LAQ824 100 nM and/or Apo-2L/TRAIL 100 ng/mL, 24 hours
From the text: Jurkat T cell leukemia and SKW6.4 B lymphoblast cells are obtained from American Tissue Culture Collection (Manassas, Va.). HL-60/Bcl-2 cells with ectopic over-expression of Bcl-2 and the control HL-60/Neo cells are created and maintained in culture as previously described. Primary leukemia blasts from six patients with AML in relapse are harvested, as previously described, from the peripheral blood or bone marrow after informed consent, as a part of a protocol study sanctioned by the local Institutional Review Board. The purity of leukemia blasts in the samples prior to culture in LAQ824 and/or Apo-2L/TRAIL was at least 80% or more, as determined by morphologic evaluation after Wright staining.
After drug treatments, cells are resuspended in 100 μL of the staining solution containing annexin-V fluorescein and propidium iodide in a HEPES buffer (Annexin-V-FLUOS Staining Kit, Boehringer-Mannheim, and Indianapolis, Ind.). Following incubation at room temperature for 15 minutes, annexin V positive cells are estimated by flow cytometry, as previously described.

B1: Apo-2L/TRAIL: recombinant human trimeric form of Apo-2L/TRAIL from Genentech, Inc., produced in E. coli (protein, UniProt P50591 1-281, looked up)
Tumor necrosis factor ligand …: MAMMEVQGGPSLGQTCVLIVIFTVLLQSLCVAVTYVYFTNELKQMQDKYSKSGIACFLKEDDSYWDPNDEESMNSPCWQVKWQLRQLVRKMILRTSEETISTVQEKQQNISPLVRERGPQRVAAHITGTRGRSNTLSSPNSKNEKALGRKINSWESSRSGHSFLSNLHLRNGELVIHEKGFYYIYSQTYFRFQEEIKENTKNDKQMVQYIYKYTSYPDPILLMKSARNSCWSKDAEYGLYSIYQGGIFELKENDRIFVSVTNEHLIDMDHEASFFGAFLVG
modifications: trimeric
notes: recombinant human trimeric form of Apo-2L/TRAIL from Genentech, Inc., produced in E. coli
Patient 1 primary AML cells, control 7.0
  % of Apoptosis: 7.6%
Patient 2 primary AML cells, control 12.0
  % of Apoptosis: 14.0%
Patient 3 primary AML cells, control 8.0
  % of Apoptosis: 8.6%
Patient 4 primary AML cells, control 10.0
  % of Apoptosis: 11.0%
Patient 5 primary AML cells, control 6.0
  % of Apoptosis: 6.8%
Patient 6 primary AML cells, control 7.0
  % of Apoptosis: 8.1%
Six samples, relapsed AML, Apo-2L/TRAIL 100 ng/mL, LAQ824 100 nM
  apoptosis of primary AML blasts (in words): resistant
